Test results from the supplement of paper PMC9112550, “Optimization of the antimicrobial peptide Bac7 by deep mutational scanning” (BMC Biology, 2022).

The sequences below were run on Escherichia coli TOP10 (assay: shrunken log2 fold change of peptide-encoding DNA abundance (4.5 h post-induction vs induction); higher = less antimicrobial activity (less host growth inhibition)). Settings: time post-induction: 4.5 h; library: site-saturation at positions 5, 18, 19, 20.
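Also: peptides expressed intracellularly from a pBAD plasmid library in pooled LB shake-flask culture, induced with 0.3% L-arabinose, DNA abundance read by NGS, three biological replicates, DESeq2 with apeglm shrinkage.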

Q: How did the “shrunken log2 fold change” value turn out when RRIRPRPPRLPRPRPRPNGWPRP was run?
A: 0.296

Q: With RRIRMRPPRLPRPRPRPTYKPRP as the sequence, how does the “shrunken log2 fold change” value read?
A: -0.0666

Q: With RRIRQRPPRLPRPRPRPAKMPRP as the sequence, how does the “shrunken log2 fold change” value read?
A: -0.207

Q: RRIRWRPPRLPRPRPRPRPWPRP was tested. Which “shrunken log2 fold change” value did it give?
A: 0.289

Q: Which “shrunken log2 fold change” value does the source give for RRIRKRPPRLPRPRPRPQIIPRP here?
A: 0.0891

Q: RRIRTRPPRLPRPRPRPESDPRP was tested. Which “shrunken log2 fold change” value did it give?
A: -0.0712

Q: RRIRRRPPRLPRPRPRPLYHPRP was tested. Which “shrunken log2 fold change” value did it give?
A: -0.353

Q: With RRIRTRPPRLPRPRPRPIHMPRP as the sequence, how does the “shrunken log2 fold change” value read?
A: -0.171

Q: For RRIRIRPPRLPRPRPRPQLEPRP, which “shrunken log2 fold change” value is on record?
A: 0.000806

Q: With RRIRMRPPRLPRPRPRPFMNPRP as the sequence, how does the “shrunken log2 fold change” value read?
A: -0.196

Q: RRIRTRPPRLPRPRPRPDSPPRP was tested. Which “shrunken log2 fold change” value did it give?
A: -0.549

Q: With RRIRCRPPRLPRPRPRPTRIPRP as the sequence, how does the “shrunken log2 fold change” value read?
A: 0.258

Q: RRIRDRPPRLPRPRPRPVAYPRP was tested. Which “shrunken log2 fold change” value did it give?
A: -0.0825

Q: With RRIRARPPRLPRPRPRPNYGPRP as the sequence, how does the “shrunken log2 fold change” value read?
A: -0.24

Q: RRIRRRPPRLPRPRPRPIMFPRP was tested. Which “shrunken log2 fold change” value did it give?
A: -0.0974

Q: For RRIRIRPPRLPRPRPRPYNKPRP, which “shrunken log2 fold change” value is on record?
A: -0.783

Q: RRIRWRPPRLPRPRPRPHVVPRP was tested. Which “shrunken log2 fold change” value did it give?
A: 0.0851

Q: With RRIRLRPPRLPRPRPRPYTLPRP as the sequence, how does the “shrunken log2 fold change” value read?
A: -0.143

Q: How did the “shrunken log2 fold change” value turn out when RRIRSRPPRLPRPRPRPSKFPRP was run?
A: -0.779

Q: How did the “shrunken log2 fold change” value turn out when RRIRHRPPRLPRPRPRPQTKPRP was run?
A: -0.0667

Q: How did the “shrunken log2 fold change” value turn out when RRIRFRPPRLPRPRPRPTWTPRP was run?
A: -0.11

Q: How did the “shrunken log2 fold change” value turn out when RRIRFRPPRLPRPRPRPCEWPRP was run?
A: 0.134

Q: RRIRPRPPRLPRPRPRPMMNPRP was tested. Which “shrunken log2 fold change” value did it give?
A: 0.03

Q: For RRIRARPPRLPRPRPRPDHTPRP, which “shrunken log2 fold change” value is on record?
A: -0.155

Q: For RRIRKRPPRLPRPRPRPWAEPRP, which “shrunken log2 fold change” value is on record?
A: 0.0785

Q: Which “shrunken log2 fold change” value does the source give for RRIRKRPPRLPRPRPRPGAIPRP here?
A: 0.238

Q: With RRIRYRPPRLPRPRPRPWLDPRP as the sequence, how does the “shrunken log2 fold change” value read?
A: -0.225

Q: Which “shrunken log2 fold change” value does the source give for RRIRLRPPRLPRPRPRPIFWPRP here?
A: -0.189

Q: For RRIRVRPPRLPRPRPRPPYAPRP, which “shrunken log2 fold change” value is on record?
A: -0.00506

Q: For RRIRGRPPRLPRPRPRPWVHPRP, which “shrunken log2 fold change” value is on record?
A: -0.0245

Q: RRIRGRPPRLPRPRPRPLIVPRP was tested. Which “shrunken log2 fold change” value did it give?
A: 0.274

Q: RRIRTRPPRLPRPRPRPMWKPRP was tested. Which “shrunken log2 fold change” value did it give?
A: 0.00922

Q: For RRIRNRPPRLPRPRPRPCAMPRP, which “shrunken log2 fold change” value is on record?
A: -0.132

Q: For RRIRERPPRLPRPRPRPEKYPRP, which “shrunken log2 fold change” value is on record?
A: -0.534

Q: Which “shrunken log2 fold change” value does the source give for RRIRNRPPRLPRPRPRPNMFPRP here?
A: -0.00614

Q: RRIRARPPRLPRPRPRPNPPPRP was tested. Which “shrunken log2 fold change” value did it give?
A: 0.458

Q: With RRIRCRPPRLPRPRPRPHKPPRP as the sequence, how does the “shrunken log2 fold change” value read?
A: 0.0762

Q: For RRIRYRPPRLPRPRPRPSAHPRP, which “shrunken log2 fold change” value is on record?
A: -0.117

Q: Which “shrunken log2 fold change” value does the source give for RRIRTRPPRLPRPRPRPQVMPRP here?
A: -0.133

Q: With RRIRNRPPRLPRPRPRPALQPRP as the sequence, how does the “shrunken log2 fold change” value read?
A: 0.234

Q: RRIRMRPPRLPRPRPRPEMYPRP was tested. Which “shrunken log2 fold change” value did it give?
A: 0.216

Q: Which “shrunken log2 fold change” value does the source give for RRIRERPPRLPRPRPRPQGRPRP here?
A: -0.0137

Q: With RRIRWRPPRLPRPRPRPEIDPRP as the sequence, how does the “shrunken log2 fold change” value read?
A: 0.0771

Q: With RRIRDRPPRLPRPRPRPTAGPRP as the sequence, how does the “shrunken log2 fold change” value read?
A: 0.534

Q: RRIRIRPPRLPRPRPRPWPIPRP was tested. Which “shrunken log2 fold change” value did it give?
A: -0.0934

Q: For RRIRIRPPRLPRPRPRPCSYPRP, which “shrunken log2 fold change” value is on record?
A: -0.176

Q: For RRIRGRPPRLPRPRPRPYDLPRP, which “shrunken log2 fold change” value is on record?
A: -0.511

Q: RRIRYRPPRLPRPRPRPNIWPRP was tested. Which “shrunken log2 fold change” value did it give?
A: -0.302

Q: RRIRIRPPRLPRPRPRPSLRPRP was tested. Which “shrunken log2 fold change” value did it give?
A: -0.72

Q: With RRIRHRPPRLPRPRPRPVVSPRP as the sequence, how does the “shrunken log2 fold change” value read?
A: -0.137

Q: Which “shrunken log2 fold change” value does the source give for RRIRARPPRLPRPRPRPFTHPRP here?
A: -0.113

Q: With RRIRGRPPRLPRPRPRPWCTPRP as the sequence, how does the “shrunken log2 fold change” value read?
A: -0.0466

Q: RRIRYRPPRLPRPRPRPRRIPRP was tested. Which “shrunken log2 fold change” value did it give?
A: 0.014

Q: With RRIRERPPRLPRPRPRPSVLPRP as the sequence, how does the “shrunken log2 fold change” value read?
A: -0.312

Q: Which “shrunken log2 fold change” value does the source give for RRIRQRPPRLPRPRPRPFVYPRP here?
A: -0.755

Q: RRIRHRPPRLPRPRPRPSLKPRP was tested. Which “shrunken log2 fold change” value did it give?
A: -0.488

Q: Which “shrunken log2 fold change” value does the source give for RRIRMRPPRLPRPRPRPDPCPRP here?
A: 0.0496

Q: For RRIRTRPPRLPRPRPRPSESPRP, which “shrunken log2 fold change” value is on record?
A: 0.122

Q: With RRIRSRPPRLPRPRPRPGHYPRP as the sequence, how does the “shrunken log2 fold change” value read?
A: -0.645

Q: With RRIRIRPPRLPRPRPRPNQPPRP as the sequence, how does the “shrunken log2 fold change” value read?
A: -0.0903

Q: Which “shrunken log2 fold change” value does the source give for RRIRARPPRLPRPRPRPMPGPRP here?
A: -0.0941

Q: RRIRMRPPRLPRPRPRPHGMPRP was tested. Which “shrunken log2 fold change” value did it give?
A: -0.0062

Q: RRIRGRPPRLPRPRPRPCLNPRP was tested. Which “shrunken log2 fold change” value did it give?
A: 0.165

Q: Which “shrunken log2 fold change” value does the source give for RRIRLRPPRLPRPRPRPAYDPRP here?
A: -0.00456

Q: For RRIRIRPPRLPRPRPRPQTNPRP, which “shrunken log2 fold change” value is on record?
A: -0.423

Q: For RRIRGRPPRLPRPRPRPLPQPRP, which “shrunken log2 fold change” value is on record?
A: 0.927

Q: RRIRYRPPRLPRPRPRPGVMPRP was tested. Which “shrunken log2 fold change” value did it give?
A: -0.55

Q: RRIRRRPPRLPRPRPRPYVEPRP was tested. Which “shrunken log2 fold change” value did it give?
A: -0.482

Q: For RRIRYRPPRLPRPRPRPNKVPRP, which “shrunken log2 fold change” value is on record?
A: -0.596

Q: How did the “shrunken log2 fold change” value turn out when RRIRRRPPRLPRPRPRPMTNPRP was run?
A: -0.00301

Q: With RRIRKRPPRLPRPRPRPYQAPRP as the sequence, how does the “shrunken log2 fold change” value read?
A: 0.134

Q: How did the “shrunken log2 fold change” value turn out when RRIRLRPPRLPRPRPRPVWRPRP was run?
A: 0.299

Q: For RRIRSRPPRLPRPRPRPTHCPRP, which “shrunken log2 fold change” value is on record?
A: 0.36

Q: For RRIRKRPPRLPRPRPRPYCFPRP, which “shrunken log2 fold change” value is on record?
A: -0.258

Q: For RRIRHRPPRLPRPRPRPISFPRP, which “shrunken log2 fold change” value is on record?
A: -0.281

Q: RRIRTRPPRLPRPRPRPKIQPRP was tested. Which “shrunken log2 fold change” value did it give?
A: -0.0936

Q: RRIRTRPPRLPRPRPRPTDQPRP was tested. Which “shrunken log2 fold change” value did it give?
A: -0.143

Q: Which “shrunken log2 fold change” value does the source give for RRIRPRPPRLPRPRPRPIMKPRP here?
A: -0.411

Q: With RRIRARPPRLPRPRPRPLVYPRP as the sequence, how does the “shrunken log2 fold change” value read?
A: -0.372

Q: For RRIRHRPPRLPRPRPRPLPIPRP, which “shrunken log2 fold change” value is on record?
A: -0.598

Q: With RRIRKRPPRLPRPRPRPRSRPRP as the sequence, how does the “shrunken log2 fold change” value read?
A: 0.418

Q: Which “shrunken log2 fold change” value does the source give for RRIRMRPPRLPRPRPRPIFRPRP here?
A: 0.185

Q: RRIRVRPPRLPRPRPRPYTIPRP was tested. Which “shrunken log2 fold change” value did it give?
A: -0.736

Q: How did the “shrunken log2 fold change” value turn out when RRIRNRPPRLPRPRPRPYENPRP was run?
A: -0.0659

Q: How did the “shrunken log2 fold change” value turn out when RRIRLRPPRLPRPRPRPYQKPRP was run?
A: 0.00934

Q: Which “shrunken log2 fold change” value does the source give for RRIRYRPPRLPRPRPRPVCHPRP here?
A: -0.583

Q: RRIRSRPPRLPRPRPRPSAAPRP was tested. Which “shrunken log2 fold change” value did it give?
A: 0.614

Q: How did the “shrunken log2 fold change” value turn out when RRIRCRPPRLPRPRPRPHSWPRP was run?
A: -0.301

Q: With RRIRIRPPRLPRPRPRPATCPRP as the sequence, how does the “shrunken log2 fold change” value read?
A: -0.349

Q: How did the “shrunken log2 fold change” value turn out when RRIRVRPPRLPRPRPRPAELPRP was run?
A: 0.175

Q: How did the “shrunken log2 fold change” value turn out when RRIRDRPPRLPRPRPRPNNKPRP was run?
A: -0.682

Q: With RRIRIRPPRLPRPRPRPGLEPRP as the sequence, how does the “shrunken log2 fold change” value read?
A: -0.0336

Q: With RRIRQRPPRLPRPRPRPNPKPRP as the sequence, how does the “shrunken log2 fold change” value read?
A: -0.00731

Q: With RRIRVRPPRLPRPRPRPWPEPRP as the sequence, how does the “shrunken log2 fold change” value read?
A: 0.465

Q: For RRIRNRPPRLPRPRPRPGEKPRP, which “shrunken log2 fold change” value is on record?
A: -0.01

Q: With RRIRIRPPRLPRPRPRPMKIPRP as the sequence, how does the “shrunken log2 fold change” value read?
A: -0.167

Q: With RRIRMRPPRLPRPRPRPLFWPRP as the sequence, how does the “shrunken log2 fold change” value read?
A: 0.554

Q: For RRIRIRPPRLPRPRPRPCSLPRP, which “shrunken log2 fold change” value is on record?
A: -0.172

Q: Which “shrunken log2 fold change” value does the source give for RRIRKRPPRLPRPRPRPPTTPRP here?
A: 0.452

Q: Which “shrunken log2 fold change” value does the source give for RRIRTRPPRLPRPRPRPPMFPRP here?
A: -0.097

Q: RRIRERPPRLPRPRPRPMVGPRP was tested. Which “shrunken log2 fold change” value did it give?
A: 0.17

Q: For RRIRMRPPRLPRPRPRPSGIPRP, which “shrunken log2 fold change” value is on record?
A: 0.0258

Q: Which “shrunken log2 fold change” value does the source give for RRIRHRPPRLPRPRPRPLIWPRP here?
A: -0.538

Q: For RRIRFRPPRLPRPRPRPWSGPRP, which “shrunken log2 fold change” value is on record?
A: -0.221

Q: With RRIRFRPPRLPRPRPRPECDPRP as the sequence, how does the “shrunken log2 fold change” value read?
A: 0.248

Q: With RRIRMRPPRLPRPRPRPAQPPRP as the sequence, how does the “shrunken log2 fold change” value read?
A: 0.586

Q: For RRIRPRPPRLPRPRPRPIWPPRP, which “shrunken log2 fold change” value is on record?
A: 0.302

Q: With RRIRFRPPRLPRPRPRPWPMPRP as the sequence, how does the “shrunken log2 fold change” value read?
A: -0.117

Q: With RRIRMRPPRLPRPRPRPQLVPRP as the sequence, how does the “shrunken log2 fold change” value read?
A: 0.00959
